Among the data in article PMC10716049 are response values, retold here.

For test [1], the target named is MED1-IDR. The test is described as follows: confocal fluorescence microscopy, AR AD partitioning into preassembled droplets. To be noted: 15 µM MED1-IDR, 20 mM NaCl, 10% ficoll, 1 µM AR AD; parent: est. 97; read off a plot.
Test [2] addresses RNAPII-CTD. The test is described as above. To be noted: 5 µM RNAPII-CTD, 50 mM NaCl, 10% ficoll, 1 µM AR AD; parent: est. 70; read off a plot.

As for AR AD WT* 22YtoS, the response in test [1] came to 80 arb.u; in test [2] it was 25 arb.u.
